This note sets out measurements from article PMC4298681 (The Journal of Cell Biology, 2015).

The test deals with native Arp2/3 complex purified from Acanthamoeba castellanii (Acanthamoeba castellanii, UniProt P53487 1-388). Nature of the test: pull-down.

B1: GST-NIK 340–500 (domain or fragment)
chain: SSIVNVPGESTLRRDFLRLQQENKERSEALRRQQLLQEQQLREQEEYKRQLLAERQKRIEQQKEQRRRLEEQQRREREARRQQEREQRRREQEEKRRLEELERRRKEEEERRRAEEEKRRVEREQEYIRRQLEEEQRHLEILQQQLLQEQAMLLHDHRRPH
B1: the Kd is approximately 213 nM.
